The results in this text go back to PMC10052277, “Detection of SARS-CoV-2 receptor binding domain using fluorescence probe and DNA flowers enabled by rolling circle amplification”.

For series [1], the target named is T1, SARS-CoV-2 Spike RBD (SARS-CoV-2, UniProt P0DTC2 319-541). The following applies: protein: commercial; tags: C-terminal 6xHis; label: 5'-FAM.
Series [2] has as its target T1, SARS-CoV-2 Spike RBD.

Like-named read-outs stand apart in the source and are kept apart here.

B1: FAM-Aptamer (ssDNA)
DNA: CAGCACCGACCTTGTGCTTTGGGAGTGCTGGTCCAAGGGCGTTAATGGACA
In the case of B1, the binding result in the series with SARS-CoV-2 Spike RBD [1] was “binds”.

B2: Aptamer (ssDNA)
DNA: B1 DNA
As to B2, the binding result with SARS-CoV-2 Spike RBD [2] is on record as “binds”.
